Test results: patent publication US20170363644

Target: Aβ42 oligomers, P05067

B1: factor XII (FXII) (protein)
chain: IPPWEAPKEHKYKAEEHTVVLTVTGEPCHFPFQYHRQLYHKCTHKGRPGPQPWCATTPNFDQDQRWGYCLEPKKVKDHCSKHSPCQKGGTCVNMPSGPHCLCPQHLTGNHCQKEKCFEPQLLRFFHKNEIWYRTEQAAVARCQCKGPDAHCQRLASQACRTNPCLHGGRCLEVEGHRLCHCPVGYTGAFCDVDTKASCYDGRGLSYRGLARTTLSGAPCQPWASEATYRNVTAEQARNWGLGGHAFCRNPDNDIRPWCFVLNRDRLSWEYCDLAQCQTPTQAAPPTPVSPRLHVPLMPAQPAPPKPQPTTRTPPQSQTPGALPAKREQPPSLTRNGPLSCGQRLRKSLSSMTRVVGGLVALRGAHPYIAALYWGHSFCAGSLIAPCWVLTAAHCLQDRPAPEDLTVVLGQERRNHSCEPCQTLAVRSYRLHEAFSPVSYQHDLALLRLQEDADGSCALLSPYVQPVCLPSGAARPSETTLCQVAGWGHQFEGAEEYASFLQEAQVPFLSLERCSAPDVHGSSILPGMLCAGFLEGGTDACQGDSGGPLVCEDQAAERRLTLQGIISWGSGCGDRNKPGVYTDVAYYLAWIREHTVS
FXII autoactivation, chromogenic substrate assay with purified FXII: Aβ42 oligomers can directly induce FXII autoactivation | FXII cleavage in human plasma (Western blot: FXII zymogen and FXIIa heavy chain): plasma incubated with Aβ42 had decreased FXII zymogen and increased FXIIa heavy chain compared to incubation with vehicle
